Experimental data reported in patent US20250084178A1, “ANTI-CD39 ANTIBODIES AND USE THEREOF” (ARCUS BIOSCIENCES, INC., priority 2022, published 2025).
“Also recorded” adds a separate entry of the source.

Columns and labels:
[1] = tested on: immune subpopulations in tumor draining lymph nodes; assay: Tumor draining lymph node immune subpopulation percentages; type: in vivo, mouse; settings: single agent or in combination with oxaliplatin
Protocol: (§1) Cell surface CD39 decreases with anti-CD39 treatment in tumor draining lymph nodes of hCD39KI mice. Tumor draining lymph nodes (TLDNs) (right inguinal lymph node) were also collected at the end of the C57BL/6 hCD39KI MC38 mouse study described above. Lymph nodes were dissociated in a 37° C. water bath in RPMI 1640 (Gibco, Cat. No. 11875119) containing of 0.6 mg/mL Collagenase P (Roche, Cat. No. 11213865001), 2.4 mg/mL Dispase II (Sigma, Cat. No. D4693), and 0.3 mg/mL DNAse I (Thermo Scientific, Cat. No. J62229 MB) for 30 minutes with gentle agitation. The dissociated lymph nodes were counted and 2×10^5 cells per well were plated in a 96-well polypropylene v-bottom plate. Cells were washed in PBS (Gibco, Cat. No. 14190-144) and resuspended in a PBS solution containing 1:25 Fc Block (BD, Cat. No. 564220) and 1:250 Near IR Fluorescent Reactive Dye (Invitrogen, Cat. No. L34976A) for 15 minutes in the dark. After the incubation, the cells were stained with an antibody cocktail (Table 20) and incubated for 30 minutes at 4° C. After the incubation, the cells were pelleted, supernatant removed, and 100 μL of fixation buffer (eBioscience, Cat. No. 00-8222-49) was added for 1 hour. […]

[2] = Body weight of hCD39KI MC38 mice; type: in vivo, mouse; settings: over the course of the experiment; C57BL/6 hCD39KI MC38 mice
Protocol: (§2) In one experiment, C57BL/6 hCD39KI mice were inoculated with 1 million MC38 cells on day 0. When tumors reached 80 mm^3, mice were dosed intraperitoneally (i.p.) with a loading dose of 20 mg/kg anti-CD39 or isotype control antibody (vehicle: PBS), and then subsequently with 10 mg/kg anti-CD39 or isotype control antibody 2×/week (BIW). Each group consisted of 11-12 mice. […] Oxaliplatin (OXA) treatment, 5 mg/kg i.p. (vehicle: saline), was initiated the day following the anti-CD39 or isotype control loading dose and dosed 1×/week. In a similarly designed experiment, BALB/c hCD39KI mice were inoculated with 4T1 cells on day 0 and treated OXA or anti-CD39 antibody as described for the MC38 model.
(§3) Tumor volume and body weight were measured approximately twice a week (BIW) and are shown in FIG. 10A and FIG. 10B respectively, where the points represent the mean and the errors bars the standard error of the mean (SEM) of the respective metrics from each group of mice. Significance was calculated using a mixed-effects model with multiple comparisons. […] Body weight was stable over the course of the experiment indicating anti-CD39 treatment was well tolerated (FIG. 10B).

human CD39 [3] = target: T1, human CD39 (Homo sapiens, UniProt P49961); assay: Enzyme histochemistry of tumors and spleens from C57BL/6 hCD39KI MC38 mice; set-up: species or system mouse; settings: tumors and spleens treated in vivo, end of study
T1 sequence (P49961 1-510): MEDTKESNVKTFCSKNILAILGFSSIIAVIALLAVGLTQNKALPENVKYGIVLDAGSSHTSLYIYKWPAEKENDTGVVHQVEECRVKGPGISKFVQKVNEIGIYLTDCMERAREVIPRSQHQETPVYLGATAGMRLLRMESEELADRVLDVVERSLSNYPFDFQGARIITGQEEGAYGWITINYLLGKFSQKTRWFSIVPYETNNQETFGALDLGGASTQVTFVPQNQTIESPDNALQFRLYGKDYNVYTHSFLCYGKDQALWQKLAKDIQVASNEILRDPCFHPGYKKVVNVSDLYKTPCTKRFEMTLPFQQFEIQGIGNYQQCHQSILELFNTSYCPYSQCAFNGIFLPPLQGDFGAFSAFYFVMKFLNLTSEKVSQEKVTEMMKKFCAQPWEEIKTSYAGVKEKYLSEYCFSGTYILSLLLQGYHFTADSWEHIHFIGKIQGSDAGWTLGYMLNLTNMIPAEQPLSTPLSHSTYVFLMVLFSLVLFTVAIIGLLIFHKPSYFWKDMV
Protocol: Tumors and spleens from C57BL/6 hCD39KI MC38 mice at the end of the study were additionally analyzed for human CD39 expression by immunohistochemistry (IHC) and evidence of anti-CD39 antibody enzymatic blocking activity by enzyme histochemistry (EHC). Briefly, frozen OCT-embedded tumor or spleen samples were sectioned at 4 um thickness, mounted on positively charged microscope slides, air dried for 15 minutes, then placed in 4% paraformaldehyde (PFA) fixative for 20 min. After fixation, the slides were washed in Tris-buffered saline and IHC was performed on an automated Leica Bond Rx platform starting with blocking of endogenous peroxidases, followed by incubation with a rabbit anti-CD39 mAb (Abcam, EPR20627), and detected with an anti-rabbit HRP polymer system followed by a diaminobenzidine (DAB) brown chromogen, hematoxylin nuclear counterstain, and then dehydrated and mounted. […] Human CD39 expression was detected in both isotype treated (FIG. 11, panel A and FIG. 12, panel A, low- and high-power magnification, respectively) and anti-CD39 treated tumors (FIG. 11, panel C and […], low- and high-power magnification, respectively), localized to vascular endothelia, infiltrating immune cells, and stromal components of the tumor microenvironment. […]

CD39 enzymatic activity [4] = target: T2, CD39 enzymatic activity (Homo sapiens, UniProt P49961); assay: Ex vivo intratumoral CD39 enzymatic activity (Kinase-Glo Plus); type: in vivo, mouse; settings: MC38 and 4T1 tumor cell suspensions, 20 μM ATP
T2 construct: from tissue; host or cells: hCD39KI mice (C57BL/6 with MC38, BALB/c with 4T1): tumours, spleen, whole blood / WBCs, tumour-draining lymph nodes
T2 sequence (P49961 1-510): T1 sequence (P49961 1-510)
Protocol: Intratumoral and peripheral CD39 enzymatic activity was also evaluated ex vivo. Upon study completion, tumor samples obtained after sacrificing C57BL/6 hCD39KI MC38 and BALB/c hCD39KI 4T1 mice were placed in RPMI+20% FBS+250 μg/ml collagenase D (Millipore Sigma, Cat. No. 11088858001)+100 KU/ml DNAse 1 (Millipore Sigma Cat. No. D5025-150KU) and enzymatically digested using gentleMACS™ Octo Dissociator to obtain a single cell suspension. […] The cells were then treated with 20 μM ATP and incubated for an additional 30 minutes at 37° C., 5% CO2. At the end of the incubation period, the 96-well plate was spun at 1000 rpm for 3 minutes and the supernatant was collected. 2× Kinase-Glo® Plus (Promega, Cat. No. V3771) was then added to the supernatants. ATP levels in the supernatants were then measured by detecting luminescence using Flexstation® 3 microplate reader. Data are presented as relative luminescence units (RLU).

[5] = Peripheral cytokine levels in plasma (MSD); type: in vivo, mouse; settings: terminal bleed, mice bearing MC38 tumors
Protocol: A terminal bleed of the mice bearing MC38 tumors were collected into BD Vacutainer® Heparin Tubes (BD Biosciences, Cat. No. 367871), centrifuged at 2000×g for 15 minutes, and supernatant plasma samples were collected. Cytokine levels in the plasma samples were analyzed using MSD following manufacturer's instructions. […] Data are presented as mean±SEM with a total of 11-12 mice per treatment group (FIG. 18). Statistical analyses were performed using an ANOVA with Tukey's multiple comparison test.

MC38 tumors = assay: MC38 tumor volume in C57BL/6 hCD39KI mice; type: in vivo, mouse; settings: anti-CD39 20 mg/kg loading then 10 mg/kg BIW i.p. with oxaliplatin 5 mg/kg i.p. 1×/week; mixed-effects model
Protocol: as §2, §3

human CD39 [6] = target: T1, human CD39; assay: Tumor draining lymph node cell surface CD39; type: in vivo, mouse; settings: tumor draining lymph nodes, hCD39KI MC38 mice
Protocol: as §1

CD39 enzymatic activity [7] = target: T2, CD39 enzymatic activity; assay: Ex vivo peripheral white blood cell CD39 enzymatic activity; type: in vivo, mouse; settings: white blood cells of 4T1 tumor-bearing hCD39KI mice, 20 μM ATP
Text: To assay peripheral CD39 enzymatic activity, peripheral white blood cells (WBCs) were isolated from terminal blood samples of hCD39KI mice and assayed as generally described for the tumor cell suspensions. Briefly, whole blood samples were mixed with 1×Pharm Lyse red blood cell lysing solution (BD Biosciences, Cat. No. 555899). WBC pellets were then collected after washing with 1×PBS solution and stored in BamBanker cell freezing medium (Bulldog Bio, Cat. No. BB01). To perform the enzymatic inhibition assay, samples were thawed and then cells were plated at 2.5×10^4 cells per well in a 96-well plate. […] All wells were then treated with 20 μM ATP and incubated for 2 hours at room temperature. At the end of the incubation period, the 96-well plate was spun at 1000 rpm for 3 minutes and the supernatant was collected. 2× Kinase-Glo® Plus (Promega, Cat. No. V3771) was then added to the supernatants. ATP levels in the supernatants were then measured by detecting luminescence using Flexstation® 3 microplate reader. Data are presented as relative luminescence units (RLU).

B1: ch39_mIGG2A.AAG: antibody 39 variable regions on mouse IgG2a; HC SEQ ID NO: 41, LC SEQ ID NO: 42; the anti-CD39 of Example 9 (antibody)
heavy: EVQLVESGGGLVQPGRSLKLSCLASGFTFNNYGMNWIRQAPGKGLEWVASFSSSSTYISYADTVKGRFTISRENAKNTLYLQMTSLRSEDTALYYCVRHGRYGGYGGFYFDYWGQGVMVTVSSAKTTAPSVYPLAPVCGDTTGSSVTLGCLVKGYFPEPVTLTWNSGSLSSGVHTFPAVLQSDLYTLSSSVTVTSSTWPSQSITCNVAHPASSTKVDKKIEPRGPTIKPCPPCKCPAPNAAGGPSVFIFPPKIKDVLMISLSPIVTCVVVDVSEDDPDVQISWFVNNVEVHTAQTQTHREDYNSTLRVVSALPIQHQDWMSGKEFKCKVNNKDLGAPIERTISKPKGSVRAPQVYVLPPPEEEMTKKQVTLTCMVTDFMPEDIYVEWTNNGKTELNYKNTEPVLDSDGSYFMYSKLRVEKKNWVERNSYSCSVVHEGLHNHHTTKSFSRTPGK
light: DTVLTQSPALAVSPGERVSISCRASEGVKSYMHWYQQKPGQQPKLLIYKASNLASGVPARFSGSGSGTDFTLTIDPVEADDTATYFCQQSWNDPTFGAGTKLELKRADAAPTVSIFPPSSEQLTSGGASVVCFLNNFYPKDINVKWKIDGSERQNGVLNSWTDQDSKDSTYSMSSTLTLTKDEYERHNSYTCEATHKTSTSPIVKSFNRNEC
- Immune subpopulation percentages [1]: did not result in significant changes
- Immune subpopulation percentages ([1]; listed as anti-CD39): No significant changes
- Body weight [2]: stable
- Lead-phosphate deposition by enzyme histochemistry (CD39 enzymatic activity) (human CD39 [3]): enzymatic activity has been blocked
- Intratumoral CD39 enzymatic activity (CD39 enzymatic activity [4]): inhibited
- Peripheral cytokine levels [5]: No elevation
- Tumor volume: p for anti-CD39+saline vs. anti-CD39+OXA (MC38 tumors): 0.0217
- Tumor volume: p for isotype+OXA vs. anti-CD39+OXA (MC38 tumors): 0.0372
- Human CD39 on the surface of immune subpopulations (human CD39 [6]): significant reduction; also recorded: significant decrease
- Peripheral CD39 enzymatic activity (CD39 enzymatic activity [7]): inhibited
